Consider 15 variants from IntAct's records for PubMed 32439656.

The labels stand for the following.
B1: ER membrane protein complex subunit 2 (Homo sapiens), Q15006 (parent)
chain: MAKVSELYDVTWEEMRDKMRKWREENSRNSEQIVEVGEELINEYASKLGDDIWIIYEQVMIAALDYGRDDLALFCLQELRRQFPGSHRVKRLTGMRFEAMERYDDAIQLYDRILQEDPTNTAARKRKIAIRKAQGKNVEAIRELNEYLEQFVGDQEAWHELAELYINEHDYAKAAFCLEELMMTNPHNHLYCQQYAEVKYTQGGLENLELSRKYFAQALKLNNRNMRALFGLYMSASHIASNPKASAKTKKDNMKYASWAASQINRAYQFAGRSKKETKYSLKAVEDMLETLQITQS
partner: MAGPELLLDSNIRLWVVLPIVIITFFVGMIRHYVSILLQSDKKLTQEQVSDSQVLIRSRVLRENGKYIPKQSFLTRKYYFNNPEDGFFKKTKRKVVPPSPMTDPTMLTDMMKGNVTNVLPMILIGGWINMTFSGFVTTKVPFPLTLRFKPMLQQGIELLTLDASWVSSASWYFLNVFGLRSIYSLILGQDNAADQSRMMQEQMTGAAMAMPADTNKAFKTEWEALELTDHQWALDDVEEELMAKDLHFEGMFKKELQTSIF
B2: ER membrane protein complex subunit 2 (Homo sapiens), Q15006 (parent)
chain: B1 chain
partner: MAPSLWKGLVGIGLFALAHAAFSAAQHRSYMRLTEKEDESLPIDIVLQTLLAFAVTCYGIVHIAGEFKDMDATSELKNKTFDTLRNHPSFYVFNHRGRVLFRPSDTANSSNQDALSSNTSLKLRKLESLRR

One test covers variants of B1. As to conditions: with emc3_human EMC3, Q9P0I2.
Take MAKVSELYDVTWEEMRDKMRKWREENSRNSEQIVEVGEELINEYASKLGDDIWIIYEQVMIAALDYGRDDLALFCLQELRRQFPGSHRVKRLTGMRFEAMERYDDAIQLYDRILQEDPTNTAARKRKIAIRKAQGKNVEAIRELNEYLEQFVGDQAAWHELAELYINEHDYAKAAFCLEELMMTNPHNHLYCQQYAEVKYTQGGLENLELSRKYFAQALKLNNRNMRALFGLYMSASHIASNPKASAKTKKDNMKYASWAASQINRAYQFAGRSKKETKYSLKAVEDMLETLQITQS [E156A]: the “effect of a mutation on the interaction” value is on record as “with no effect”. The same measure, in the same setting: in the case of MAKVSELYDVTWEEMRDKMRKWREENSRNSEQIVEVGEELINEYASKLGDDIWIIYEQVMIAALDYGRDDLALFCLQELRRQFPGSHRVKRLTGMRFEAMERYDDAIQLYDRILQEDPTNTAARKRKIAIRKAQGKNVEAIRELNEYLEQFVGDQEAWHELAELYINEHDYAKAAFCLEELMMTNPHNHLYCQQYAEVKATQGGLENLELSRKYFAQALKLNNRNMRALFGLYMSASHIASNPKASAKTKKDNMKYASWAASQINRAYQFAGRSKKETKYSLKAVEDMLETLQITQS [Y200A] it was “with no effect”; in that of MAKVSELYDVTWEEMRDKMRKWREENSRNSEQIVEVGEELINEYASKLGDDIWIIYEQVMIAALDYGRDDLALFCLQELRRQFPGSHRVKRLTGMRFEAMERYDDAIQLYDRILQEDPTNTAARKRKIAIRKAQGKNVEAIRELNEYLEQFVGDQEAWHALAELYINEHDYAKAAFCLEELMMTNPHNHLYCQQYAEVKYTQGGLENLELSRKYFAQALKLNNRNMRALFGLYMSASHIASNPKASAKTKKDNMKYASWAASQINRAYQFAGRSKKETKYSLKAVEDMLETLQITQS [E160A], “with no effect”; in that of MAKVSELYDVTWEEMRDKMRKWREENSRNSEQIVEVGEELINEYASKLGDDIWIIYEQVMIAALDYGRDDLALFCLQELRRQFPGSHRVKRLTGMRFEAMERYDDAIQLYDRILQEDPTNTAARKRKIAIRKAQGKNVEAIRELNEYLEQFVGDQEAWHELAELYINEHDYAKAAFCLEELMMTNPHNHLYCQQYAEVKYTQGGLENLELSRKYFAQALKLNNRNMRALFGLYMSASHIASNPKASAKTKKDNMKYASAAASQINRAYQFAGRSKKETKYSLKAVEDMLETLQITQS [W259A], “disrupting interaction strength”. Still for that read-out and setting: in the case of MAKVSELYDVTWEEMRDKMRKWREENSRNSEQIVEVGEELINEYASKLGDDIWIIYEQVMIAALDYGRDDLALFCLQELRRQFPGSHRVKRLTGMRFEAMERYDDAIQLYDRILQEDPTNTAARKRKIAIRKAQGKNVEAIRELNEYLEQFVGDQEAWHELAELYINEHDAAKAAFCLEELMMTNPHNHLYCQQYAEVKYTQGGLENLELSRKYFAQALKLNNRNMRALFGLYMSASHIASNPKASAKTKKDNMKYASWAASQINRAYQFAGRSKKETKYSLKAVEDMLETLQITQS [Y171A] it was “with no effect”; in that of MAKVSELYDVTWEEMRDKMRKWREENSRNSEQIVEVGEELINEYASKLGDDIWIIYEQVMIAALDYGRDDLALFCLQELRRQFPGSHRVKRLTGMRFEAMERYDDAIQLYDRILQEDPTNTAARKRKIAIRKAQGKNVEAIRELNEYLEQFVGDQEAWHELAELYINEHDYAKAAFCLEELMMTNPHNHLYCQQYAEVKYTQGGLENLELSRKYFAQALKLNNRNMAALFGLYMSASHIASNPKASAKTKKDNMKYASWAASQINRAYQFAGRSKKETKYSLKAVEDMLETLQITQS [R227A], “disrupting interaction strength”. As for MAKVSELYDVTWEEMRDKMRKWREENSRNSEQIVEVGEELINEYASKLGDDIWIIYEQVMIAALDYGRDDLALFCLQELRRQFPGSHRVKRLTGMRFEAMERYDDAIQLYDRILQEDPTNTAARKRKIAIRKAQGKNVEAIRELNEYLEQFVGDQEAWHELAELYINEHDYAKAAFCLEALMMTNPHNHLYCQQYAEVKYTQGGLENLELSRKYFAQALKLNNRNMRALFGLYMSASHIASNPKASAKTKKDNMKYASWAASQINRAYQFAGRSKKETKYSLKAVEDMLETLQITQS [E180A], the “effect of a mutation on the interaction” value was “disrupting interaction strength”.

The variants in another test derive from B2. As to conditions: with emc5_human MMGT1, Q8N4V1.
For MAKVSELYDVTWEEMRDKMRKWREENSRNSEQIVEVGEELINEYASKLGDDIWIIYEQVMIAALDYGRDDLALFCLQELRRQFPGSHRVKRLTGMRFEAMERYDDAIQLYDRILQEDPTNTAARKRKIAIRKAQGKNVEAIRELNEYLEQFVGDQAAWHELAELYINEHDYAKAAFCLEELMMTNPHNHLYCQQYAEVKYTQGGLENLELSRKYFAQALKLNNRNMRALFGLYMSASHIASNPKASAKTKKDNMKYASWAASQINRAYQFAGRSKKETKYSLKAVEDMLETLQITQS [E156A], the “effect of a mutation on the interaction” value is listed as “disrupting interaction strength”. As for MAKVSELYDVTWEEMRDKMRKWREENSRNSEQIVEVGEELINEYASKLGDDIWIIYEQVMIAALDYGRDDLALFCLQELRRQFPGSHRVKRLTGMRFEAMERYDDAIQLYDRILQEDPTNTAARKRKIAIRKAQGKNVEAIRELNEYLEQFVGDQEAWHELAELYINEHDYAKAAFCLEELMMTNPHNHLYCQQYAEVKYTQGGLENLELSRKYFAQALKLNNRNMAALFGLYMSASHIASNPKASAKTKKDNMKYASWAASQINRAYQFAGRSKKETKYSLKAVEDMLETLQITQS [R227A], the “effect of a mutation on the interaction” value is “disrupting interaction strength”. MAKVSELYDVTWEEMRDKMRKWREENSRNSEQIVEVGEELINEYASKLGDDIWIIYEQVMIAALDYGRDDLALFCLQELRRQFPGSHRVKRLTGMRFEAMERYDDAIQLYDRILQEDPTNTAARKRKIAIRKAQGKNVEAIRELNEYLEQFVGDQEAWHALAELYINEHDYAKAAFCLEELMMTNPHNHLYCQQYAEVKYTQGGLENLELSRKYFAQALKLNNRNMRALFGLYMSASHIASNPKASAKTKKDNMKYASWAASQINRAYQFAGRSKKETKYSLKAVEDMLETLQITQS [E160A]: the “effect of a mutation on the interaction” value is on record as “disrupting interaction strength”. For the variant MAKVSELYDVTWEEMRDKMRKWREENSRNSEQIVEVGEELINEYASKLGDDIWIIYEQVMIAALDYGRDDLALFCLQELRRQFPGSHRVKRLTGMRFEAMERYDDAIQLYDRILQEDPTNTAARKRKIAIRKAQGKNVEAIRELNEYLEQFVGDQEAWHELAELYINEHDYAKAAFCLEALMMTNPHNHLYCQQYAEVKYTQGGLENLELSRKYFAQALKLNNRNMRALFGLYMSASHIASNPKASAKTKKDNMKYASWAASQINRAYQFAGRSKKETKYSLKAVEDMLETLQITQS [E180A], the “effect of a mutation on the interaction” value is “with no effect”. In the case of MAKVSELYDVTWEEMRDKMRKWREENSANSEQIVEVGEELINEYASKLGDDIWIIYEQVMIAALDYGRDDLALFCLQELRRQFPGSHRVKRLTGMRFEAMERYDDAIQLYDRILQEDPTNTAARKRKIAIRKAQGKNVEAIRELNEYLEQFVGDQEAWHELAELYINEHDYAKAAFCLEELMMTNPHNHLYCQQYAEVKYTQGGLENLELSRKYFAQALKLNNRNMRALFGLYMSASHIASNPKASAKTKKDNMKYASWAASQINRAYQFAGRSKKETKYSLKAVEDMLETLQITQS [R28A], the “effect of a mutation on the interaction” value is given as “disrupting interaction strength”. For the variant MAKVSELYDVTWEEMRDKMRKWREENSRNSEQIVEVGEELINEYASKLGDDIWIIYEQVMIAALDYGRDDLALFCLQELRRQFPGSHRVKRLTGMRFEAMERYDDAIQLYDRILQEDPTNTAARKRKIAIRKAQGKNVEAIRELNEYLEQFVGDQEAWHELAELYINEHDYAKAAFCLEELMMTNPHNHLYCQQYAEVKYTQGGLENLELSRKYFAQALKLNNRNMRALFGLYMSASHIASNPKASAKTKKDNMKYASAAASQINRAYQFAGRSKKETKYSLKAVEDMLETLQITQS [W259A], the “effect of a mutation on the interaction” value is given as “with no effect”. Regarding MAKVSELYDVTWEEMRDKMRKWREENSRNSEQIVEVGEELINEYASKLGDDIWIIYEQVMIAALDYGRDDLALFCLQELRRQFPGSHRVKRLTGMRFEAMERYDDAIQLYDRILQEDPTNTAARKRKIAIRKAQGKNVEAIRELNEYLEQFVGDQEAWHELAELYINEHDAAKAAFCLEELMMTNPHNHLYCQQYAEVKYTQGGLENLELSRKYFAQALKLNNRNMRALFGLYMSASHIASNPKASAKTKKDNMKYASWAASQINRAYQFAGRSKKETKYSLKAVEDMLETLQITQS [Y171A], the “effect of a mutation on the interaction” value is listed as “with no effect”.

For the variant MAKVSELYDVTWEEMRDKMRKWREENSRNSEQIVEVGEELINEYASKLGDDIWIIYEQVMIAALDYGRDDLALFCLQELRRQFPGSHRVKRLTGMRFEAMERYDDAIQLYDRILQEDPTNTAARKRKIAIRKAQGKNVEAIRELNEYLEQFVGDQEAWHELAELYINEHDYAKAAFCLEELMMTNPHNHLYCQQYAEVKATQGGLENLELSRKYFAQALKLNNRNMRALFGLYMSASHIASNPKASAKTKKDNMKYASWAASQINRAYQFAGRSKKETKYSLKAVEDMLETLQITQS [Y200A], the “effect of a mutation on the interaction” value was “disrupting interaction strength”.
